{"source": "paper PMC6628251", "about": "“Structural and Functional Impact of Seven Missense Variants of Phenylalanine Hydroxylase” (Genes, 2019)", "proteins": {"B1": {"name": "human wild type phenylalanine hydroxylase, fusion with maltose-binding protein (enzyme, UniProt P00439 1-452, looked up)", "chain": "MSTAVLENPGLGRKLSDFGQETSYIEDNCNQNGAISLIFSLKEEVGALAKVLRLFEENDVNLTHIESRPSRLKKDEYEFFTHLDKRSLPALTNIIKILRHDIGATVHELSRDKKKDTVPWFPRTIQELDRFANQILSYGAELDADHPGFKDPVYRARRKQFADIAYNYRHGQPIPRVEYMEEEKKTWGTVFKTLKSLYKTHACYEYNHIFPLLEKYCGFHEDNIPQLEDVSQFLQTCTGFRLRPVAGLLSSRDFLGGLAFRVFHCTQYIRHGSKPMYTPEPDICHELLGHVPLFSDRSFAQFSQEIGLASLGAPDEYIEKLATIYWFTVEFGLCKQGDSIKAYGAGLLSSFGELQYCLSEKPKLLPLELEKTAIQNYTVTEFQPLYYVAESFNDAKEKVRNFAATIPRPFSVRYDPYTQRIEVLDNTQQLKILADSINSEIGILCSALQKIK", "notes": "phenylalanine hydroxylase (PAH), human, WT cDNA in the pMAL-MBP-c2 vector; also called WT PAH; PAH-MBP fusion protein"}, "B2": {"name": "human phenylalanine hydroxylase variant p.Thr200Asn, fusion with maltose-binding protein (enzyme, UniProt P00439 1-452, looked up)", "chain": "MSTAVLENPGLGRKLSDFGQETSYIEDNCNQNGAISLIFSLKEEVGALAKVLRLFEENDVNLTHIESRPSRLKKDEYEFFTHLDKRSLPALTNIIKILRHDIGATVHELSRDKKKDTVPWFPRTIQELDRFANQILSYGAELDADHPGFKDPVYRARRKQFADIAYNYRHGQPIPRVEYMEEEKKTWGTVFKTLKSLYKNHACYEYNHIFPLLEKYCGFHEDNIPQLEDVSQFLQTCTGFRLRPVAGLLSSRDFLGGLAFRVFHCTQYIRHGSKPMYTPEPDICHELLGHVPLFSDRSFAQFSQEIGLASLGAPDEYIEKLATIYWFTVEFGLCKQGDSIKAYGAGLLSSFGELQYCLSEKPKLLPLELEKTAIQNYTVTEFQPLYYVAESFNDAKEKVRNFAATIPRPFSVRYDPYTQRIEVLDNTQQLKILADSINSEIGILCSALQKIK", "notes": "phenylalanine hydroxylase (PAH), human, missense variant from Czech PKU/HPA patients, made by site-directed mutagenesis of pMAL-PAH; Same construct as m1 with one substitution; also called c.599C>A"}, "B3": {"name": "human phenylalanine hydroxylase variant p.Ala342Pro, fusion with maltose-binding protein (enzyme, UniProt P00439 1-452, looked up)", "chain": "MSTAVLENPGLGRKLSDFGQETSYIEDNCNQNGAISLIFSLKEEVGALAKVLRLFEENDVNLTHIESRPSRLKKDEYEFFTHLDKRSLPALTNIIKILRHDIGATVHELSRDKKKDTVPWFPRTIQELDRFANQILSYGAELDADHPGFKDPVYRARRKQFADIAYNYRHGQPIPRVEYMEEEKKTWGTVFKTLKSLYKTHACYEYNHIFPLLEKYCGFHEDNIPQLEDVSQFLQTCTGFRLRPVAGLLSSRDFLGGLAFRVFHCTQYIRHGSKPMYTPEPDICHELLGHVPLFSDRSFAQFSQEIGLASLGAPDEYIEKLATIYWFTVEFGLCKQGDSIKPYGAGLLSSFGELQYCLSEKPKLLPLELEKTAIQNYTVTEFQPLYYVAESFNDAKEKVRNFAATIPRPFSVRYDPYTQRIEVLDNTQQLKILADSINSEIGILCSALQKIK", "notes": "phenylalanine hydroxylase (PAH), human, missense variant from Czech PKU/HPA patients, made by site-directed mutagenesis of pMAL-PAH; Same construct as m1 with one substitution; also called c.1024G>C"}, "B4": {"name": "human phenylalanine hydroxylase variant p.Phe263Ser, fusion with maltose-binding protein (enzyme, UniProt P00439 1-452, looked up)", "chain": "MSTAVLENPGLGRKLSDFGQETSYIEDNCNQNGAISLIFSLKEEVGALAKVLRLFEENDVNLTHIESRPSRLKKDEYEFFTHLDKRSLPALTNIIKILRHDIGATVHELSRDKKKDTVPWFPRTIQELDRFANQILSYGAELDADHPGFKDPVYRARRKQFADIAYNYRHGQPIPRVEYMEEEKKTWGTVFKTLKSLYKTHACYEYNHIFPLLEKYCGFHEDNIPQLEDVSQFLQTCTGFRLRPVAGLLSSRDFLGGLAFRVSHCTQYIRHGSKPMYTPEPDICHELLGHVPLFSDRSFAQFSQEIGLASLGAPDEYIEKLATIYWFTVEFGLCKQGDSIKAYGAGLLSSFGELQYCLSEKPKLLPLELEKTAIQNYTVTEFQPLYYVAESFNDAKEKVRNFAATIPRPFSVRYDPYTQRIEVLDNTQQLKILADSINSEIGILCSALQKIK", "notes": "phenylalanine hydroxylase (PAH), human, missense variant from Czech PKU/HPA patients, made by site-directed mutagenesis of pMAL-PAH; Same construct as m1 with one substitution; also called c.788T>C"}, "B5": {"name": "human phenylalanine hydroxylase variant p.Asp229Gly, fusion with maltose-binding protein (enzyme, UniProt P00439 1-452, looked up)", "chain": "MSTAVLENPGLGRKLSDFGQETSYIEDNCNQNGAISLIFSLKEEVGALAKVLRLFEENDVNLTHIESRPSRLKKDEYEFFTHLDKRSLPALTNIIKILRHDIGATVHELSRDKKKDTVPWFPRTIQELDRFANQILSYGAELDADHPGFKDPVYRARRKQFADIAYNYRHGQPIPRVEYMEEEKKTWGTVFKTLKSLYKTHACYEYNHIFPLLEKYCGFHEDNIPQLEGVSQFLQTCTGFRLRPVAGLLSSRDFLGGLAFRVFHCTQYIRHGSKPMYTPEPDICHELLGHVPLFSDRSFAQFSQEIGLASLGAPDEYIEKLATIYWFTVEFGLCKQGDSIKAYGAGLLSSFGELQYCLSEKPKLLPLELEKTAIQNYTVTEFQPLYYVAESFNDAKEKVRNFAATIPRPFSVRYDPYTQRIEVLDNTQQLKILADSINSEIGILCSALQKIK", "notes": "phenylalanine hydroxylase (PAH), human, missense variant from Czech PKU/HPA patients, made by site-directed mutagenesis of pMAL-PAH; Same construct as m1 with one substitution; also called c.686A>G"}, "B6": {"name": "human phenylalanine hydroxylase variant p.Ile406Met, fusion with maltose-binding protein (enzyme, UniProt P00439 1-452, looked up)", "chain": "MSTAVLENPGLGRKLSDFGQETSYIEDNCNQNGAISLIFSLKEEVGALAKVLRLFEENDVNLTHIESRPSRLKKDEYEFFTHLDKRSLPALTNIIKILRHDIGATVHELSRDKKKDTVPWFPRTIQELDRFANQILSYGAELDADHPGFKDPVYRARRKQFADIAYNYRHGQPIPRVEYMEEEKKTWGTVFKTLKSLYKTHACYEYNHIFPLLEKYCGFHEDNIPQLEDVSQFLQTCTGFRLRPVAGLLSSRDFLGGLAFRVFHCTQYIRHGSKPMYTPEPDICHELLGHVPLFSDRSFAQFSQEIGLASLGAPDEYIEKLATIYWFTVEFGLCKQGDSIKAYGAGLLSSFGELQYCLSEKPKLLPLELEKTAIQNYTVTEFQPLYYVAESFNDAKEKVRNFAATMPRPFSVRYDPYTQRIEVLDNTQQLKILADSINSEIGILCSALQKIK", "notes": "phenylalanine hydroxylase (PAH), human, missense variant from Czech PKU/HPA patients, made by site-directed mutagenesis of pMAL-PAH; Same construct as m1 with one substitution; also called c.1218A>G"}, "B7": {"name": "human phenylalanine hydroxylase variant p.Asn167Tyr, fusion with maltose-binding protein (enzyme, UniProt P00439 1-452, looked up)", "chain": "MSTAVLENPGLGRKLSDFGQETSYIEDNCNQNGAISLIFSLKEEVGALAKVLRLFEENDVNLTHIESRPSRLKKDEYEFFTHLDKRSLPALTNIIKILRHDIGATVHELSRDKKKDTVPWFPRTIQELDRFANQILSYGAELDADHPGFKDPVYRARRKQFADIAYYYRHGQPIPRVEYMEEEKKTWGTVFKTLKSLYKTHACYEYNHIFPLLEKYCGFHEDNIPQLEDVSQFLQTCTGFRLRPVAGLLSSRDFLGGLAFRVFHCTQYIRHGSKPMYTPEPDICHELLGHVPLFSDRSFAQFSQEIGLASLGAPDEYIEKLATIYWFTVEFGLCKQGDSIKAYGAGLLSSFGELQYCLSEKPKLLPLELEKTAIQNYTVTEFQPLYYVAESFNDAKEKVRNFAATIPRPFSVRYDPYTQRIEVLDNTQQLKILADSINSEIGILCSALQKIK", "notes": "phenylalanine hydroxylase (PAH), human, missense variant from Czech PKU/HPA patients, made by site-directed mutagenesis of pMAL-PAH; Same construct as m1 with one substitution; also called c.499A>T"}, "B8": {"name": "human phenylalanine hydroxylase variant p.Gly239Ala, fusion with maltose-binding protein (enzyme, UniProt P00439 1-452, looked up)", "chain": "MSTAVLENPGLGRKLSDFGQETSYIEDNCNQNGAISLIFSLKEEVGALAKVLRLFEENDVNLTHIESRPSRLKKDEYEFFTHLDKRSLPALTNIIKILRHDIGATVHELSRDKKKDTVPWFPRTIQELDRFANQILSYGAELDADHPGFKDPVYRARRKQFADIAYNYRHGQPIPRVEYMEEEKKTWGTVFKTLKSLYKTHACYEYNHIFPLLEKYCGFHEDNIPQLEDVSQFLQTCTAFRLRPVAGLLSSRDFLGGLAFRVFHCTQYIRHGSKPMYTPEPDICHELLGHVPLFSDRSFAQFSQEIGLASLGAPDEYIEKLATIYWFTVEFGLCKQGDSIKAYGAGLLSSFGELQYCLSEKPKLLPLELEKTAIQNYTVTEFQPLYYVAESFNDAKEKVRNFAATIPRPFSVRYDPYTQRIEVLDNTQQLKILADSINSEIGILCSALQKIK", "notes": "phenylalanine hydroxylase (PAH), human, missense variant from Czech PKU/HPA patients, made by site-directed mutagenesis of pMAL-PAH; Same construct as m1 with one substitution; also called c.716G>C"}}, "key": {"[1]": {"target": "the molecule itself", "assay": "SEC; MBP-PAH expressed in E. coli XL1 blue without GroEL/ES; MBPTrap HP affinity, then Superdex 200 HR 10/30; 200 mM NaCl, 20 mM HEPES, pH 7.0; percent of oligomers, tetramers and dimers, mean of three column purifications"}, "[2]": {"target": "the molecule itself", "assay": "SEC; MBP-PAH expressed in E. coli XL1 blue without GroEL/ES; MBPTrap HP affinity, then Superdex 200 HR 10/30; 200 mM NaCl, 20 mM HEPES, pH 7.0; percent of oligomers, tetramers and dimers, mean of three column purifications", "remark": "listed apart in the source"}, "[3]": {"target": "the molecule itself", "assay": "SEC; MBP-PAH co-expressed with GroEL/ES (pGroELS) in E. coli XL1 blue; MBPTrap HP affinity, then Superdex 200 HR 10/30; 200 mM NaCl, 20 mM HEPES, pH 7.0; percent of oligomers, tetramers and dimers, mean of three column purifications"}}, "note": "“And” between values parts separate entries of the source, which are not always exact repeats. Equal entries are not always repeated.", "data": [{"protein": "B1", "values": [{"measurement": "stoichiometry N", "setting": "[1]", "value": "4 and 2"}]}, {"protein": "B2", "values": [{"measurement": "percent of purified protein as dimers", "setting": "[2]", "value": 10.5, "unit": "%"}, {"measurement": "percent of purified protein as tetramers", "setting": "[2]", "value": 40.5, "unit": "%"}, {"measurement": "percent of purified protein as dimers", "setting": "[3]", "value": 4.5, "unit": "%"}, {"measurement": "percent of purified protein as tetramers", "setting": "[3]", "value": 43.8, "unit": "%"}]}, {"protein": "B3", "values": [{"measurement": "percent of purified protein as dimers", "setting": "[2]", "value": 22, "unit": "%"}, {"measurement": "percent of purified protein as dimers", "setting": "[3]", "value": 15.5, "unit": "%"}, {"measurement": "percent of purified protein as tetramers", "setting": "[3]", "value": 3.8, "unit": "%"}]}, {"protein": "B4", "values": [{"measurement": "percent of purified protein as dimers", "setting": "[2]", "value": 27.1, "unit": "%"}, {"measurement": "percent of purified protein as dimers", "setting": "[3]", "value": 13.6, "unit": "%"}, {"measurement": "percent of purified protein as tetramers", "setting": "[3]", "value": 11, "unit": "%"}]}, {"protein": "B5", "values": [{"measurement": "percent of purified protein as dimers", "setting": "[2]", "value": 19.3, "unit": "%"}, {"measurement": "percent of purified protein as dimers", "setting": "[3]", "value": 10.1, "unit": "%"}, {"measurement": "percent of purified protein as tetramers", "setting": "[3]", "value": 10.2, "unit": "%"}]}, {"protein": "B6", "values": [{"measurement": "percent of purified protein as dimers", "setting": "[2]", "value": 15.6, "unit": "%"}, {"measurement": "percent of purified protein as tetramers", "setting": "[2]", "value": 34.2, "unit": "%"}, {"measurement": "percent of purified protein as dimers", "setting": "[3]", "value": 6.9, "unit": "%"}, {"measurement": "percent of purified protein as tetramers", "setting": "[3]", "value": 37.7, "unit": "%"}]}, {"protein": "B7", "values": [{"measurement": "percent of purified protein as dimers", "setting": "[2]", "value": 20.2, "unit": "%"}, {"measurement": "percent of purified protein as tetramers", "setting": "[2]", "value": 33.2, "unit": "%"}, {"measurement": "percent of purified protein as dimers", "setting": "[3]", "value": 8.5, "unit": "%"}, {"measurement": "percent of purified protein as tetramers", "setting": "[3]", "value": 38.8, "unit": "%"}]}, {"protein": "B8", "values": [{"measurement": "percent of purified protein as dimers", "setting": "[2]", "value": 32.8, "unit": "%"}, {"measurement": "percent of purified protein as dimers", "setting": "[3]", "value": 14, "unit": "%"}, {"measurement": "percent of purified protein as tetramers", "setting": "[3]", "value": 5.5, "unit": "%"}]}]}
